Where a chain is given by its changes, count along the chain named. Numbers in names are those of the source.
B1: CEACAM5-TCB, CEACAM5 CD3 variant P035.093 (bispecific antibody, human IgG1, kappa, L234A L235A)
heavy 1: not shown
heavy 2: QVQLVQSGAEVKKPGSSVKVSCKASGFNIKDTYMHWVRQAPGQGLEWMGRIDPANGNSKYVPKFQGRVTITADTSTSTAYMELSSLRSEDTAVYYCAPFGYYVSDYAMAYWGQGTLVTVSSASTKGPSVFPLAPSSKSTSGGTAALGCLVEDYFPEPVTVSWNSGALTSGVHTFPAVLQSSGLYSLSSVVTVPSSSLGTQTYICNVNHKPSNTKVDEKVEPKSCDKTHTCPPCPAPEAAGGPSVFLFPPKPKDTLMISRTPEVTCVVVDVSHEDPEVKFNWYVDGVEVHNAKTKPREEQYNSTYRVVSVLTVLHQDWLNGKEYKCKVSNKALGAPIEKTISKAKGQPREPQVCTLPPSRDELTKNQVSLSCAVKGFYPSDIAVEWESNGQPENNYKTTPPVLDSDGSFFLVSKLTVDKSRWQQGNVFSCSVMHEALHNHYTQKSLSLSP
light 1: EIVLTQSPATLSLSPGERATLSCRAGESVDIFGVGFLHWYQQKPGQAPRLLIYRASNRATGIPARFSGSGSGTDFTLTISSLEPEDFAVYYCQQTNEDPYTFGQGTKLEIKRTVAAPSVFIFPPSDRKLKSGTASVVCLLNNFYPREAKVQWKVDNALQSGNSQESVTEQDSKDSTYSLSSTLTLSKADYEKHKVYACEVTHQGLSSPVTKSFNRGEC
light 2: EVQLLESGGGLVQPGGSLRLSCAASGFTFSSYAMNWVRQAPGKGLEWVSRIRSKYNNYATYYADSVKGRFTISRDDSKNTLYLQMNSLRAEDTAVYYCVRASNFPASYVSYFAYWGQGTLVTVSSASVAAPSVFIFPPSDEQLKSGTASVVCLLNNFYPREAKVQWKVDNALQSGNSQESVTEQDSKDSTYSLSSTLTLSKADYEKHKVYACEVTHQGLSSPVTKSFNRGEC
notes: 2+1 IgG CrossFab, inverted; human IgG1 Fc, knob-into-hole, PGLALA; also called P035.093 in CEACAM5-TCB format
B2: CEACAM5-TCB with CD3orig as CD3 binder (bispecific antibody, human IgG1, kappa, L234A L235A)
heavy 1: not shown
heavy 2: B1 heavy 2
light 1: B1 light 1
light 2: B1 light 2 with S31T, A101H, S102G, P105G, A106N, Y111W
notes: also called CD3orig in CEACAM5-TCB format
B3: CEACAM5-TCB, CEACAM5 CD3 variant P004.042 (bispecific antibody, human IgG1, kappa, L234A L235A)
heavy 1: not shown
heavy 2: B1 heavy 2
light 1: B1 light 1
light 2: B1 light 2 with T28Q, S30D, S31N, S53T, N57E, A106Q, A113G
notes: 2+1 IgG CrossFab, inverted; human IgG1 Fc, knob-into-hole, PGLALA; also called P004.042 in CEACAM5-TCB format
B4: TYRP1-TCB with the parental CD3 binder CD3orig (bispecific antibody, human IgG1, kappa, L234A L235A)
heavy 1: not shown
heavy 2: QVQLVQSGAEVKKPGASVKVSCKASGFNIKDYFLHWVRQAPGQGLEWMGWINPDNGNTVYAQKFQGRVTMTADTSTSTVYMELSSLRSEDTAVYYCTRRDYTYEKAALDYWGQGTLVTVSSASTKGPSVFPLAPSSKSTSGGTAALGCLVEDYFPEPVTVSWNSGALTSGVHTFPAVLQSSGLYSLSSVVTVPSSSLGTQTYICNVNHKPSNTKVDEKVEPKSCDKTHTCPPCPAPEAAGGPSVFLFPPKPKDTLMISRTPEVTCVVVDVSHEDPEVKFNWYVDGVEVHNAKTKPREEQYNSTYRVVSVLTVLHQDWLNGKEYKCKVSNKALGAPIEKTISKAKGQPREPQVCTLPPSRDELTKNQVSLSCAVKGFYPSDIAVEWESNGQPENNYKTTPPVLDSDGSFFLVSKLTVDKSRWQQGNVFSCSVMHEALHNHYTQKSLSLSP
light 1: DIQMTQSPSSLSASVGDRVTITCRASGNIYNYLAWYQQKPGKVPKLLIYDAKTLADGVPSRFSGSGSGTDFTLTISSLQPEDVATYYCQHFWSLPFTFGQGTKLEIKRTVAAPSVFIFPPSDRKLKSGTASVVCLLNNFYPREAKVQWKVDNALQSGNSQESVTEQDSKDSTYSLSSTLTLSKADYEKHKVYACEVTHQGLSSPVTKSFNRGEC
light 2: B1 light 2 with S31T, A101H, S102G, P105G, A106N, Y111W
notes: Same 2+1 format as m1; also called CD3orig in TCB format
B5: TYRP1-TCB with anti-CD3 antibody clone P035.093 (bispecific antibody, human IgG1, kappa, L234A L235A)
heavy 1: not shown
heavy 2: B4 heavy 2
light 1: B4 light 1
light 2: B1 light 2
notes: human IgG1 Fc, knob-into-hole, P329G L234A L235A; also called P035.093 in TCB format
B6: TYRP1-TCB with anti-CD3 antibody clone P035.064 (bispecific antibody, human IgG1, kappa, L234A L235A)
heavy 1: not shown
heavy 2: B4 heavy 2
light 1: B4 light 1
light 2: B1 light 2 with T28D, S30D, S31N, Y55H, N57G, A106S, A113G
notes: human IgG1 Fc, knob-into-hole, P329G L234A L235A; also called P035.064 in TCB format
B7: TYRP1-TCB with anti-CD3 antibody clone P004.042 (bispecific antibody, human IgG1, kappa, L234A L235A)
heavy 1: not shown
heavy 2: B4 heavy 2
light 1: B4 light 1
light 2: B1 light 2 with T28Q, S30D, S31N, S53T, N57E, A106Q, A113G
notes: human IgG1 Fc, knob-into-hole, P329G L234A L235A; also called P004.042 in TCB format
B8: TYRP1-TCB with anti-CD3 antibody clone P021.045 (bispecific antibody, human IgG1, kappa, L234A L235A)
heavy 1: not shown
heavy 2: B4 heavy 2
light 1: B4 light 1
light 2: B1 light 2 with A106S
notes: human IgG1 Fc, knob-into-hole, P329G L234A L235A; also called P021.045 in TCB format

Target: human CD3 on cells (CD3ε) (human, UniProt P07766 23-207)
Experiment: cell-based or functional assay

Chain of human CD3 on cells (CD3ε) (P07766 23-207 limits assumed): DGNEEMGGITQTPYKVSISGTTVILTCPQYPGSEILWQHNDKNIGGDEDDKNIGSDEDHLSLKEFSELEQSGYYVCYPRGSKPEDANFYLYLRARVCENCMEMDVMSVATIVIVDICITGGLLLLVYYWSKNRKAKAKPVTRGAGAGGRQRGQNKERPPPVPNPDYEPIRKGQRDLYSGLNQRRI

Row | Binder | EC50 24 h (pM), T-cell mediated lysis of CEACAM5-expressing LS180 tumor cells [pM] | EC50 48 h (pM), T-cell mediated lysis of CEACAM5-expressing LS180 tumor cells [pM]
1 | B1 | 22 | 14.2
2 | B2 | 244 | 115
3 | B3 | 59.1 | 36.9

Target: T1, Human CD3ε stalk-Fc(knob)-Avi/CD3δ stalk-Fc(hole) (human)
T1 construct: Heterodimer of CD3 delta and CD3 epsilon ectodomains fused to human Fc with knob-into-hole; also called human CD3ε/δ; CD3 antigen
Experiment: SPR, TCB captured by anti-PG antibody, antigen as analyte, 25°C
From the text: (§1) For affinity measurements, TCB molecules were captured on a C1 sensorchip (GE Healthcare) surface with immobilized anti-Fc(P329G) IgG (an antibody that specifically binds human IgG₁ Fc(P329G); “anti-PG antibody”—see WO 2017/072210, incorporated herein by reference). The experimental setup is schematically depicted in FIG. 3. Capture IgG was coupled to the sensorchip surface by direct immobilization of around 400 resonance units (RU) using the standard amine coupling kit (GE Healthcare Life Sciences).
(§2) To analyze the interaction to CD3, TCB molecules were captured for 80 s at 25 nM with a flow rate of 10 μl/min. […] The dissociation was monitored for 800 s.
(§3) Kinetic constants were derived using the Biacore T200 Evaluation Software (GE Healthcare Life Sciences), to fit rate equations for 1:1 Langmuir binding by numerical integration. The half-life (t_{1/2}) of the interaction was calculated using the formula t_{1/2}=ln2/koff.

Row | Binder | Kd [nM] | koff [s⁻¹] | kon [M⁻¹ s⁻¹] | t1/2 [min]
4 | B4 | 6.54 | 0.00338 | 517000 | 3.42
5 | B5 | 0.41 | 0.00153 | 3.75e+06 | 7.55
6 | B6 | 0.63 | 0.00115 | 1.83e+06 | 10
7 | B7 | 1.54 | 0.00295 | 1.92e+06 | 3.92
8 | B8 | 0.43 | 0.00133 | 3.1e+06 | 8.69

Target: T2, Cynomolgus CD3ε stalk-Fc(knob)-Avi/CD3δ stalk-Fc(hole) (cynomolgus)
T2 construct: also called cynomolgus CD3ε/δ
Experiment: as above
From the text: as §1, §2, §3

Row | Binder | Kd [nM] | koff [s⁻¹] | kon [M⁻¹ s⁻¹] | t1/2 [min]
9 | B5 | 0.21 | 0.00104 | 4.89e+06 | 11.1
10 | B6 | 0.38 | 0.000921 | 2.44e+06 | 12.5
11 | B7 | 0.71 | 0.00272 | 3.85e+06 | 4.25
12 | B8 | 0.2 | 0.000967 | 4.88e+06 | 11.9

Target: T1, Human CD3ε stalk-Fc(knob)-Avi/CD3δ …
Experiment: as above
Remark: another data set of the same source
From the text: as §1, §3
(§4) To analyze the interaction to CD3, TCB molecules were captured for 240 s at 25 nM with a flow rate of 10 μl/min. Human and cynomolgus CD3F stalk-Fc(knob)-Avi/CD36-stalk-Fc(hole) were passed at a concentration of 0.14-100 nM with a flow rate of […] through the flow cells for 240 s. The dissociation was monitored for 800 s.

Row | Binder | Kd [nM] | koff [s⁻¹] | kon [M⁻¹ s⁻¹] | t1/2 [min]
13 | B1 | 0.384 | 0.00111 | 2.93e+06 | 10.4
14 | B2 | 3.37 | 0.00281 | 851000 | 4.1
15 | B3 | 1.31 | 0.00261 | 2.02e+06 | 4.42

Target: T2, Cynomolgus CD3ε stalk-Fc(knob)-Avi/CD3δ …
Experiment: as above
Remark: another data set of the same source
From the text: as §1, §3, §4

Row | Binder | Kd [nM] | koff [s⁻¹] | kon [M⁻¹ s⁻¹] | t1/2 [min]
16 | B1 | 0.201 | 0.000765 | 3.8e+06 | 15.1
17 | B3 | 0.641 | 0.00162 | 2.54e+06 | 7.1

Target: T1, Human CD3ε stalk-Fc(knob)-Avi/CD3δ …
Experiment: SPR on immobilized human CD3ε/δ after stress, relative to sample kept at -80°C pH 6
Procedure: (§5) In order to assess the effect of the deamidation site removal and its effect on the stability of the antibodies, the optimized anti-CD3 antibodies (in TCB format) were incubated for 14 days at 37° C., pH 7.4 and at 40° C., pH 6 and further analyzed by SPR for their binding capability to human CD3ε/δ. Samples stored at −80° C. pH 6 were used as reference. The reference samples and the samples stressed at 40° C. were in 20 mM His, 140 mM NaCl, pH 6.0, and the samples stressed at 37° C. in PBS, pH 7.4, all at a concentration of 1.0 mg/ml. After the stress period (14 days) samples in PBS were dialyzed back to 20 mM His, 140 mM NaCl, pH 6.0 for further analysis.
(§6) All SPR experiments were performed on a Biacore T200 instrument (GE Healthcare) at 25° C. with HBS-P+ (10 mM HEPES, 150 mM NaCl pH 7.4, 0.05% Surfactant P20) as running and dilution buffer. Biotinylated human CD3ε/δ (see Example 3, SEQ ID NOs 41 and 42) as well as biotinylated anti-huIgG (Capture Select, Thermo Scientific, #7103262100) were immobilized on a Series S Sensor Chip SA (GE Healthcare, #29104992), resulting in surface densities of at least 1000 resonance units (RU). Anti-CD3 antibodies with a concentration of 2 μg/ml were injected for 30 s at a flow rate of 5 μl/min, and dissociation was monitored for 120 s. The surface was regenerated by injecting 10 mM glycine pH 1.5 for 60 s. Bulk refractive index differences were corrected by subtracting blank injections and by subtracting the response obtained from a blank control flow cell. For evaluation, the binding response 5 seconds after injection end was taken. To normalize the binding signal, the CD3 binding was divided by the anti-huIgG response (the signal (RU) obtained upon capture of the CD3 antibody on the immobilized anti-huIgG antibody). The relative binding activity was calculated by referencing each temperature stressed sample to the corresponding, non-stressed sample.

Row | Binder | binding activity [%] after 2 weeks at pH 6.0/40°C [%] | binding activity [%] after 2 weeks at pH 7.4/37°C [%]
18 | B4 | 95 | 65
19 | B5 | 97 | 95
20 | B6 | 97 | 96
21 | B7 | 98 | 98
22 | B8 | 99 | 95

Target: T1, Human CD3ε stalk-Fc(knob)-Avi/CD3δ …
Experiment: as above
Remark: another data set of the same source
Procedure: as §5, §6
The experiment was performed as described in Example 4, using the TCB molecules prepared in Example 7.

Row | Binder | binding activity [%] after 2 weeks at pH 6.0/40°C [%] | binding activity [%] after 2 weeks at pH 7.4/37°C [%]
23 | B1 | 100 | 97
24 | B2 | 95 | 66
25 | B3 | 100 | 99

Reference: patent US20260125469A1 (Hoffmann-La Roche, published 2026)
